The target in this assay is Gab2 608-620 (Homo sapiens), Q9UQC2. Briefly: flow.

Changes are numbered by the printed parent chain.

B1: SHP2 N-SH2, Q06124 (protein)
chain: WFHPNITGVEAENLLLTRGVDGSFLARPSKSNPGDFALSVRRNGAVTHIKIQNTGDYYDLYGGEKFATLAELVQYYMEHHGQLKEKNGDVIELKYPL
One may read the Kd as the free concentration of one partner at which half of the binding sites on the other are occupied at equilibrium, for simple one-to-one binding. A higher Kd goes with weaker binding. For the molecule B1, the Kd amounted to 1.7 nM.

B2: SHP2 N-SH2, Q06124 (protein)
chain: B1 chain with A37S
B2: the dissociation constant Kd came to 5.3 nM.

For the origin of these results see paper PMC7013464.
